The values below come from patent US20040058366, “Novel clock gene bmal2” (published 2004).

Data set [1] deals with T1, cBMAL2 (Gallus gallus, UniProt Q8QGQ7 SEQ:1-622).
T1 sequence: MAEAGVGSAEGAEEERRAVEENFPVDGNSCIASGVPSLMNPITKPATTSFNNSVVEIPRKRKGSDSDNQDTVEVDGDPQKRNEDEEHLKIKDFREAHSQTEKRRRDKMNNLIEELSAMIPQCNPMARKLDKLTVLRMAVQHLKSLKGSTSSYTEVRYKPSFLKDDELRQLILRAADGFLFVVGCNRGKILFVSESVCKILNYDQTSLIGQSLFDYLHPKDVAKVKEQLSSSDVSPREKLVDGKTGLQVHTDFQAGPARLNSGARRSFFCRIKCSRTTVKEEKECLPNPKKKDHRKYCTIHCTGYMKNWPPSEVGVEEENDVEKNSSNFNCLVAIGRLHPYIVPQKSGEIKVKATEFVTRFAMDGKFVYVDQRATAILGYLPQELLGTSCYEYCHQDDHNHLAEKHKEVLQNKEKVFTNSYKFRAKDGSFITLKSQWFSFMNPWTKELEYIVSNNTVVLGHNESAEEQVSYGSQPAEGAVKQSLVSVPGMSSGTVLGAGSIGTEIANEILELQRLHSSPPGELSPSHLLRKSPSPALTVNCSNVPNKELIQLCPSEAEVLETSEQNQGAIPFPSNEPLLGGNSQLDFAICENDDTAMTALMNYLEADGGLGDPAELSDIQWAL
In words: EMSA; no specific band with cBMAL2 alone. Conditions: label: 32P; within a 39 bp EcoRI fragment excised from pCR2.1. From the text: (§1) For preparation of the probe, oligonucleotides [cP2E1-S: 5′-GTGTCACACGTGAGGCTTA-3′ (Seq. ID No. 59) and cP2E1-AS: 5′-TAAGCCTCACGTGTGACAC-3′ (Seq. ID No. 60)] were synthesized that correspond to the E-box sequence and its flanking sequences within a putative promoter/enhancer region of cPer2 gene. These oligonucleotides synthesized were annealed together and subcloned into a pCR2.1 vector using TOPO-TA cloning kit (Invitrogen, Calif.), from which a 39 bp fragment was excised with a restriction enzyme EcoRI and used. The above-mentioned cBMAL1, cBMAL2 and cCLOCK were prepared by being transcribed and translated in vitro from an expression plasmid containing the cDNA of cBmal1, cBmal2 or cClock with the aid of TNT-T7 Quick Coupled Transcription/Translation System (Promega). […]
(§2) 5 μL each of the protein mixtures thus obtained (BMAL1+BMAL2, BMAL1+CLOCK, BMAL2+CLOCK) was added with 32 μL of buffer [25 mM Hepes-KOH (pH 7.6), 100 mM KCl, 0.1 mM EDTA, 10% (v/v) glycerol, 7.5 mM MgCl₂, 1 mM DTT and 1 μg denatured salmon sperm DNA] containing a ³²P-labeled probe (33 fmoles, 1.3×10⁵ cpm) andwas incubated for 20 min at 23° C. After the incubation, each mixture was separated by a 6% polyacrylamide gel electrophoresis and analyzed similarly as in Example 7 using a FLA2000 bioimage analyzer (FUJI PHOTO FILM). […]

Data set [2] has as its target cBMAL1-cCLOCK heterodimer (Gallus gallus, UniProt Q9I8T7;Q8QGQ6 Q9I8T7:1-633,Q8QGQ6:1-875). In words: EMSA; two or three specific complexes; 7.5 mM MgCl2, 100 mM KCl, pH 7.6, 23 C. Conditions: tags: TNT-T7 coupled transcription/translation; label: 32P; within a 39 bp EcoRI fragment excised from pCR2.1.
Description: as §1, §2

The target in data set [3] is T2, cBMAL2-cCLOCK heterodimer (Gallus gallus, UniProt Q8QGQ7;Q8QGQ6 Q8QGQ7:1-622,Q8QGQ6:1-875).
T2 sequence 1: T1 sequence
T2 sequence 2: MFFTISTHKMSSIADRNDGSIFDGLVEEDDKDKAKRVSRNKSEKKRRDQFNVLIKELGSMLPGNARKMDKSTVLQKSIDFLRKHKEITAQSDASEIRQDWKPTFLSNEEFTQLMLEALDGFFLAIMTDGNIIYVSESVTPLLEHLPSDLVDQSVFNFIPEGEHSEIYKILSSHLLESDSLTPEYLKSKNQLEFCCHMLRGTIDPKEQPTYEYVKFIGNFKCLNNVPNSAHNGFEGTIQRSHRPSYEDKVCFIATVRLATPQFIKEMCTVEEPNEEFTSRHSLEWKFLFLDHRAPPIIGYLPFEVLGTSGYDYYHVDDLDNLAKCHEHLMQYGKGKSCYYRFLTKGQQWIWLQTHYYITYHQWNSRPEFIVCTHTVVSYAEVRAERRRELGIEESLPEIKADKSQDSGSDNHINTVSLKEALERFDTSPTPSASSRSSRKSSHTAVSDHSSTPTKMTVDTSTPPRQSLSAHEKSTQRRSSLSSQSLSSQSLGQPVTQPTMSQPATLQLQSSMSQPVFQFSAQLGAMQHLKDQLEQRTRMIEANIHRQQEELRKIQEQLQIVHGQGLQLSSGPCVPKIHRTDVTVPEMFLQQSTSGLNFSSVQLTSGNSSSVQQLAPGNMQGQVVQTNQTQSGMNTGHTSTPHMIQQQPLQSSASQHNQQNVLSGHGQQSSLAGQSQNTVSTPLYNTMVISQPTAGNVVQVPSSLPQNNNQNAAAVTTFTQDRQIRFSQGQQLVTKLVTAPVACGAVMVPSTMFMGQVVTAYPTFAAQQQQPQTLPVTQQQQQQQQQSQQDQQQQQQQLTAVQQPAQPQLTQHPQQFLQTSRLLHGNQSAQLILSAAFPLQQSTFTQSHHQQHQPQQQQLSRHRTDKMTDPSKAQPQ
Described as above. Conditions: tags: TNT-T7 coupled transcription/translation; label: 32P; within a 39 bp EcoRI fragment excised from pCR2.1.
Description: as §1, §2

In data set [4] the target is T3, cCLOCK (Gallus gallus, UniProt Q8QGQ6 Q8QGQ6:1-875).
T3 sequence: T2 sequence 2
In words: EMSA; no specific band with cCLOCK alone. Conditions: label: 32P; within a 39 bp EcoRI fragment excised from pCR2.1.
Description: as §1, §2

The target of data set [5] is cBMAL1 (Gallus gallus, UniProt Q9I8T7 Q9I8T7:1-633). In words: EMSA; no specific band with cBMAL1 alone. Conditions: label: 32P; within a 39 bp EcoRI fragment excised from pCR2.1.
Description: as §1, §2
In general terms: In EMSA bound probe runs differently from free probe, usually more slowly.

cBMAL1, sequence (Q9I8T7 whole entry, the tested form may be a part, one chain of several): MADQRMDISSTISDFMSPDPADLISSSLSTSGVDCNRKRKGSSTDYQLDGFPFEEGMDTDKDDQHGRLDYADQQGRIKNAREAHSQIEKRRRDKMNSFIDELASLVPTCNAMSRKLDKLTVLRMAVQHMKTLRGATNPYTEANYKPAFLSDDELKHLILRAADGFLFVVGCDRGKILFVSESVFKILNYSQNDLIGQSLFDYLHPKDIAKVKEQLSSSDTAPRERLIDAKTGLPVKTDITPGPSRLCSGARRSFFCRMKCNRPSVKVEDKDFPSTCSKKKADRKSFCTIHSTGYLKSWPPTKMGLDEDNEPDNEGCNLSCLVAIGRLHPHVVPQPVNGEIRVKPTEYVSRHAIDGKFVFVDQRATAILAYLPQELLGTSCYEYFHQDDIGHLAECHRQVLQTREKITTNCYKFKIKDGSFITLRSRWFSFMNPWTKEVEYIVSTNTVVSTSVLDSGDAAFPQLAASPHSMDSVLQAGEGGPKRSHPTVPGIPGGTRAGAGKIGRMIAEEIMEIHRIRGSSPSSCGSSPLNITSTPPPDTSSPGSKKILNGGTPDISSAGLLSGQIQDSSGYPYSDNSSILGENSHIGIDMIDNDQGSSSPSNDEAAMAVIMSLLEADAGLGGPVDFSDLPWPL
cBMAL1-cCLOCK heterodimer, sequence (Q9I8T7 whole entry, the tested form may be a part, one chain of several): as above

B1: cPer2 E-box probe (dsDNA)
DNA 1: GTGTCACACGTGAGGCTTA
DNA 2: TAAGCCTCACGTGTGACAC
Take B1: the binding result in data set [1] was “no binding”; in data set [2], “binds”; in data set [3], “binds”; in data set [4], “no binding”; in data set [5], “no binding”.
